The source of these data is article doi:10.1101/698563 (bioRxiv, 2019).

This test addresses human carcinoembryonic antigen (CEA) (Homo sapiens, UniProt P06731). As to the kind of experiment: flow cytometry on cells. (In general: In flow cytometry, cells or beads pass a laser one at a time.)

Sequence of human carcinoembryonic antigen (CEA) (P06731 35-685): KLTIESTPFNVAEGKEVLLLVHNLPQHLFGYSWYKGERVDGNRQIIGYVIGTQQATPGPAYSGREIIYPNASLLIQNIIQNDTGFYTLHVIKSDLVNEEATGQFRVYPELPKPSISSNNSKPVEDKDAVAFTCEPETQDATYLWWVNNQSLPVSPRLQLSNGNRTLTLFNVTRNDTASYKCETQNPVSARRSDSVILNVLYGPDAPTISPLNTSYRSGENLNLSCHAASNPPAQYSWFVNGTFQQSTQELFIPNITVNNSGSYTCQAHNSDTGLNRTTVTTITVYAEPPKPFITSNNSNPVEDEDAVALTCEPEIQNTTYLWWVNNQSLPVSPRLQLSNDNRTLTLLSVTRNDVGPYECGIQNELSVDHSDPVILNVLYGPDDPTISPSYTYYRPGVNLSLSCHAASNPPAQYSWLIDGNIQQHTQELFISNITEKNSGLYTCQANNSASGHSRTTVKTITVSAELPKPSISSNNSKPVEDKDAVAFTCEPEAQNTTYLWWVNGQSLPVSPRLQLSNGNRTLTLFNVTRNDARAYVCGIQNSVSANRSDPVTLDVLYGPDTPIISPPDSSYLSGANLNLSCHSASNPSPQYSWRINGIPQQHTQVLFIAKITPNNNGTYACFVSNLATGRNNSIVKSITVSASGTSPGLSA

B1: Sm3E-TNF (scFv, V domains shown)
VH: QVKLEQSGAEVVKPGASVKLSCKASGFNIKDSYMHWLRQGPGQRLEWIGWIDPENGDTEYAPKFQGKATFTTDTSANTAYLGLSSLRPEDTAVYYCNEGTPTGPYYFDYWGQGTLVTVSS
VL: ENVLTQSPSSMSVSVGDRVTIACSASSSVPYMHWLQQKPGKSPKLLIYLTSNLASGVPSRFSGSGSGTDYSLTISSVQPEDAATYYCQQRSSYPLTFGGGTKLEIK
With B1, the binding result is reported as “binds”.
